# T1: LAGE3 (full-length, subunit of the recombinant GON7/LAGE3/OSGEP complex) (human, UniProt Q14657 1-143)
# T1 construct: LAGE3, human, KEOPS subunit (homolog of Pcc1); full-length protein used for all structural work; no electron density for the 60 N-terminal residues; source: recombinant, co-expressed with the other KEOPS subunits, purified (size exclusion chromatography, NiIDA); details in Supplementary Methods
# T1 sequence (looked up): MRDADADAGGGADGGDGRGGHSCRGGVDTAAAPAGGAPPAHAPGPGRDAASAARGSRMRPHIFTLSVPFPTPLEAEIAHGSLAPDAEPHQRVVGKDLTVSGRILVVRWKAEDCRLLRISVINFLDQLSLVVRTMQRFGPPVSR
# Target: T1, LAGE3 (full-length, subunit of the …)
# Assay: SEC-SAXS; SAXS on samples eluting from an online size exclusion HPLC column; 20 mM MES pH 6.5, 200 mM NaCl, 5 mM 2-mercaptoethanol; purified recombinant GON7/LAGE3/OSGEP complex
# Details: both partners purified
row,Binder,stoichiometry N
1,"GON7 (full-length, subunit of the recombinant GON7/LAGE3/OSGEP complex) (natural protein, human, UniProt Q9BXV9 1-100, looked up, GON7 (alias C14orf142), human, fifth subunit of the KEOPS complex; full-length protein used for all structural work; only residues 1-20 and 25-50 are seen in the crystal; also called C14orf142; GON7-his; source: recombinant, co-expressed with the other KEOPS subunits, purified (size exclusion chromatography, NiIDA); details in Supplementary Methods) MELLGEYVGQEGKPQKLRVSCEAPGDGDPFQGLLSGVAQMKDMVTELFDPLVQGEVQHRVAAAPDEDLDGDDEDDAEDENNIDNRTNFDGPSAKRPKTPS",1
2,"OSGEP (full-length, subunit of the recombinant GON7/LAGE3/OSGEP complex) (enzyme, human, UniProt Q9NPF4 1-335, looked up, OSGEP, human, catalytic subunit of the KEOPS complex (homolog of Kae1); full-length protein used for all structural work; source: recombinant, co-expressed with the other KEOPS subunits, purified (size exclusion chromatography, NiIDA); details in Supplementary Methods) MPAVLGFEGSANKIGVGVVRDGKVLANPRRTYVTPPGTGFLPGDTARHHRAVILDLLQEALTESGLTSQDIDCIAYTKGPGMGAPLVSVAVVARTVAQLWNKPLVGVNHCIGHIEMGRLITGATSPTVLYVSGGNTQVIAYSEHRYRIFGETIDIAVGNCLDRFARVLKISNDPSPGYNIEQMAKRGKKLVELPYTVKGMDVSFSGILSFIEDVAHRMLATGECTPEDLCFSLQETVFAMLVEITERAMAHCGSQEALIVGGVGCNVRLQEMMATMCQERGARLFATDERFCIDNGAMIAQAGWEMFRAGHRTPLSDSGVTQRYRTDEVEVTWRD",1
